The test concerns the target C-192 ( | human, UniProt P0CG48 1-76; P0CG48 1-76, L73P (from the printed letters 55-TLSDYNIQKESTLHLVLRPR-74), Lys63 of the acceptor ubiquitin in an isopeptide bond with the C-terminal glycine of the donor ubiquitin (Lys63-linked diubiquitin) | C-terminal glycine of the donor ubiquitin in an isopeptide bond …). Put plainly: SPR; Biacore T200; C-192 immobilised on a CM5 chip by amine coupling (5 ug/mL in 10 mM sodium acetate pH 5.5, 400 RU); GLP-1R, GCGR (3.906-1000 nM) or KLB (0.195-200 nM) injected at 50 uL/min for 4 min, dissociation 10 min; 1:1 kinetic binding model. As to conditions: both partners purified. For orientation: In SPR one partner is held on a chip, and binding of the other changes the refractive index at the surface.

B1: GCGR (receptor)
chain: AQVMDFLFEKWKLYGDQCHHNLSLLPPPTELVCNRTFDKYSCWPDTPANTTANISCPWYLPWHHKVQHRFVFKRCGPDGQWVRGPRGQPWRDASQCQMDGEEIEVQKEVAK
What is called Kd is a measure of binding affinity in units of concentration. In general, kon refers to the rate constant with which the complex forms. Low readings indicate slow association, high ones fast association. B1 returned a dissociation constant (Kd) of 19.4 nM and an on-rate (kon) of 26300 M⁻¹ s⁻¹.
